Laboratory results reported in US20240131158A1 (Takeda / Millennium, published 2024).
Where a chain is given by its changes, count along the chain named. In names and notes the source's numbering stands.

T1: mouse recombinant TGFbR2-Fc protein (mouse, UniProt Q62312-1 24-184, limits assumed)
T1 construct: also called mouse TGFbR2; not shown: Fc part of the fusion protein
T1 sequence (looked up): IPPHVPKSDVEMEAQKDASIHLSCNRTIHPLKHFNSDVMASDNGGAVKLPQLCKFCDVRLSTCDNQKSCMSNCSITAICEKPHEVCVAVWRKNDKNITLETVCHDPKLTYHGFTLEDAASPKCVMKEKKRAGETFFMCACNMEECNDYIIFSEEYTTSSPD

B1: TGFbR2 scFv VH-VL (scFv)
scFv: QLQVQESGPGLVKPSETLSLTCTVSGGSISNSYFSWGWIRQPPGKGLEWIGSFYYGEKTYYNPSLKSRATISIDTSKSQFSLKLSSVTAADTAVYYCPRGPTMIRGVIDSWGQGTLVTVSSGGGGSGGGGSGGGGSEIVLTQSPATLSLSPGERATLSCRASQSVRSYLAWYQQKPGQAPRLLIYDASNRATGIPARFSGSGSGTDFTLTISSLEPEDFAVYYCQQRSNWPPTFGQGTKVEIK
notes: Secreted into CAR-T cell supernatant; Detected with anti-flag HRP; also called hTGFbR2 scFv VH-VL monomer; TGFbR2 scFv VH-VL monomer
B2: hTGFbR2 VH2 monomer (VHH)
VHH: EVQLLESGGGLVQPGGSLRLSCAASGSTFTEYRMWWVRQAPGKGLEWVSAIEPIGHRTYYANSVRGRFTISRDNSKNTLYLQMNSLRAEDTAVYYCAKQAPGEKWARRWDLDYWGQGTLVTVSS
notes: Flag-tagged (anti-flag HRP detection); also called TGFbR2 hVH2
B3: hTGFbR2 VH1 (VHH)
VHH: EVQLLESGGGLVQPGGSLRLSCAASGFTFGTEQMWWVRQAPGKGLEFVSRIDSPGGRTYYADSVKGRFTISRDNSKNTLYLQMNSLRAEDTAVYYCAKRRPTGVSGTFYDYWGQGTLVTVSS
notes: Single domain VH; Secreted into CAR-T cell supernatant; Detected with anti-flag HRP
B4: hTGFbR2 VH3 monomer (VHH)
VHH: B3 VHH with E32D, D62N, R100Q, T102A, T107K, F108Y, Y109V
notes: Flag-tagged
B5: TGFbR2 scFv VL-VH (scFv)
scFv: EIVLTQSPATLSLSPGERATLSCRASQSVRSYLAWYQQKPGQAPRLLIYDASNRATGIPARFSGSGSGTDFTLTISSLEPEDFAVYYCQQRSNWPPTFGQGTKVEIKGGGGSGGGGSGGGGSQLQVQESGPGLVKPSETLSLTCTVSGGSISNSYFSWGWIRQPPGKGLEWIGSFYYGEKTYYNPSLKSRATISIDTSKSQFSLKLSSVTAADTAVYYCPRGPTMIRGVIDSWGQGTLVTVSS
notes: Secreted into CAR-T cell supernatant; Detected with anti-flag HRP
B6: mTGFbR2 VH1 (VHH)
VHH: EVQLLESGGGLVQPGGSLRLSCAASGFTFTTYGMGWVRQAPGKGLEWVSWIEKTGNKTYYADSVKGRFTISRDNSKNTLYLQMNSLRAEDTAVYYCAKARHIKVRSRDFDYWGQGTLVTVSS
notes: Single domain VH expressed in human CAR-T cells; Flag-tagged
B7: hTGFbR2 scFv VH-VL G4S dimer (scFv)
chain: QLQVQESGPGLVKPSETLSLTCTVSGGSISNSYFSWGWIRQPPGKGLEWIGSFYYGEKTYYNPSLKSRATISIDTSKSQFSLKLSSVTAADTAVYYCPRGPTMIRGVIDSWGQGTLVTVSSGGGGSGGGGSGGGGSEIVLTQSPATLSLSPGERATLSCRASQSVRSYLAWYQQKPGQAPRLLIYDASNRATGIPARFSGSGSGTDFTLTISSLEPEDFAVYYCQQRSNWPPTFGQGTKVEIKGGGGSQLQVQESGPGLVKPSETLSLTCTVSGGSISNSYFSWGWIRQPPGKGLEWIGSFYYGEKTYYNPSLKSRATISIDTSKSQFSLKLSSVTAADTAVYYCPRGPTMIRGVIDSWGQGTLVTVSSGGGGSGGGGSGGGGSEIVLTQSPATLSLSPGERATLSCRASQSVRSYLAWYQQKPGQAPRLLIYDASNRATGIPARFSGSGSGTDFTLTISSLEPEDFAVYYCQQRSNWPPTFGQGTKVEIK
notes: Built here from its name (scFv - G4S - scFv); Flag-tagged; also called TGFbR2 scFv VH-VL dimer
B8: hTGFbR2 VH2 G4S dimer (VHH)
chain: EVQLLESGGGLVQPGGSLRLSCAASGSTFTEYRMWWVRQAPGKGLEWVSAIEPIGHRTYYANSVRGRFTISRDNSKNTLYLQMNSLRAEDTAVYYCAKQAPGEKWARRWDLDYWGQGTLVTVSSGGGGSEVQLLESGGGLVQPGGSLRLSCAASGSTFTEYRMWWVRQAPGKGLEWVSAIEPIGHRTYYANSVRGRFTISRDNSKNTLYLQMNSLRAEDTAVYYCAKQAPGEKWARRWDLDYWGQGTLVTVSS
notes: Flag-tagged; also called hTGFbR2-VH2 dimer
B9: hTGFbR2 VH3 G4S dimer (VHH)
chain: EVQLLESGGGLVQPGGSLRLSCAASGFTFGTDQMWWVRQAPGKGLEFVSRIDSPGGRTYYANSVKGRFTISRDNSKNTLYLQMNSLRAEDTAVYYCAKRQPAGVSGKYVDYWGQGTLVTVSSGGGGSEVQLLESGGGLVQPGGSLRLSCAASGFTFGTDQMWWVRQAPGKGLEFVSRIDSPGGRTYYANSVKGRFTISRDNSKNTLYLQMNSLRAEDTAVYYCAKRQPAGVSGKYVDYWGQGTLVTVSS
notes: It is built here from its name (VH3 - G4S - VH3); Flag-tagged; also called hTGFbR2-VH3 dimer

What was measured:
[1] = molecular target: T1, mouse recombinant TGFbR2-Fc protein; assay: ELISA, mouse recombinant TGFbR2-Fc as capture, mouse CAR-T supernatant, anti-flag HRP detection
Experimental: (§1) Supernatant from TGF-β modulating CAR-T cells were assayed by ELISA to detect anti-TGF-β and anti-TGFβR2 antibodies. Maxisorp 96 well plates were coated with recombinant human TGF-β […] or hTGFβR2-Fc (0.1 mg/ml; RnD System) in 100 μl coating buffer overnight at 4° C. Plates were washed with 1× wash buffer and blocked for 1 hour with reagent diluent at room temperature. CAR-T supernatant, recombinant TGFβR2-flag, or recombinant TGF-3-flag antibody was added and incubated for 2 hours at room temperature.
(§2) After another washing step, HRP-conjugated flag-tag antibody was added and incubated for 30 minutes at room temperature. Plates were washed and TMB substrate was added for 10-20 minutes. The reaction was stopped using Stop reagent and plates were read at 450 nm using a Pherastar Plate reader. ELISA using coated TGF-b detected high levels of TGF-b scFv VH-VL1 and TGF-b scFv VH-VL2 as compared to TGF-b scFv VL-VH using anti-flag tag HRP antibodies for binder detection (FIG. 3A). ELISA using coated TGFbR2-Fc detected high levels of TGFbR2 scFv VH-VL, TGFbR2 scFv VL-VH and hTGFbR2 VH1 from human CAR-T but was unable to detect mTGFbR2 VH1 (FIG. 3B). TGF-β binders and TGFβR2 binders were secreted by TGF-β modulating CAR-T cells and bind to their cognate antigen.
Supernatant was harvested two days after transduction and frozen at −80′C until used for ELISA. ELISA was performed as described in Example 3. Human recombinant TGFbR2-Fc protein was used for capturing binders against human TGFbR2 and mouse recombinant TGFbR2-Fc protein was used for probing binding of TGFbR2 binders to mouse TGFbR2. Binding was detected using anti-flag HRP antibodies and the respective substrate. […] None of the binders from the tested supernatants bound to mouse TGFbR2 confirming specificity for human TGFBR2.

[2] = molecular target: T2, hTGFβR2-Fc (human, UniProt P37173 23-159); assay: ELISA, human recombinant TGFbR2-Fc as capture, mouse CAR-T supernatant, anti-flag HRP detection
T2 construct: Bought (RnD Systems); also called TGFbR2-Fc; human recombinant TGFbR2-Fc protein; not shown: Fc part of the bought fusion protein
Experimental: as §1
as §2, with “TGF-β binders and TGFβR2 binders were secreted by TGF-β modulating CAR-T cells and bind to their cognate antigen.” left out
(§3) Supernatant was harvested two days after transduction and frozen at −80′C until used for ELISA. […] Binding was detected using anti-flag HRP antibodies and the respective substrate. […]

[3] = molecular target: T2, hTGFβR2-Fc; assay: ELISA (figure legend)
Experimental: as §1
as §2, with “TGF-β binders and TGFβR2 binders were secreted by TGF-β modulating CAR-T cells and bind to their cognate antigen.” left out
as §3

[4] = molecular target: T2, hTGFβR2-Fc; assay: ELISA, plate coated with hTGFβR2-Fc, human CAR-T supernatant, anti-flag HRP detection
Experimental: as §1, §2

[5] = molecular target: T2, hTGFβR2-Fc; assay: ELISA, plate coated with hTGFβR2-Fc, CAR-T supernatant, anti-flag HRP detection
Experimental: as §1, §2

T2 sequence (P37173 23-159 limits assumed): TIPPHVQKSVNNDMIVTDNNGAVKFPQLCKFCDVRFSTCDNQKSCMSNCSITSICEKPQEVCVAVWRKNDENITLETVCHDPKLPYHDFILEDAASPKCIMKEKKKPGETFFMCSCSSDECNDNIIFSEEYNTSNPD

Binder | binding result [1] | other results
B1 | no binding | binding result [2]: binds
B2 | no binding | binding result [3]: binds
B3 | – | binding result [4]: binds
B4 | no binding | binding result [3]: binds
B5 | – | binding result [4]: binds
B6 | – | binding result [5]: no binding
B7 | no binding | –
B8 | no binding | –
B9 | no binding | –
